Laboratory results reported in patent US10456465B2, “Compositions, kits, and methods for the diagnosis prognosis, monitoring, treatment and modulation of post-transplant lymphoproliferative disorders and hypoxia associated angiogenesis disorders using galectin-1” (Dana-Farber Cancer Institute, Inc., priority 2009, dated 2019).

B1: anti-Gal1 monoclonal antibody 8F4F8G7 (antibody, V domains shown)
VH: EVQLQQSVAEFVRPGASVRLSCTASGFNIKNTYIHWVRQRPEQGLEWIGKIDPANGNTKYVPEFQGKATMTADTSSNTVYLHLSSLTSEDTAIYYCVDGYYGWYFAVWGTGTTVTVSS
VL: QAVVTQESALTTSPGETVTLTCRSSTGAVTTSNYANWVQEKPDHLFTGLIGATNNRAPGVPARFSGSLIGDKAVLTITGAQTEDEAIYFCALWYRNHFIFGSGTKVTVL
notes: Murine hybridoma mAb (deposit PTA-10535), lambda light chain; also called 14-19 8F4-F8-G7; clone 8F4.8F.67

Tests used:
VEGFR2 = target: T1, VEGFR2 (Homo sapiens, UniProt P35968); experiment: Co-immunoprecipitation of Gal1 with VEGFR2 in HUVEC lysates; assay type: binding; conditions: lysates of human ECs treated with Gal1
T1 construct: co-immunoprecipitation results followed by immunoblot analysis of HUVEC lysates; endogenous in cells; host or cells: primary HUVEC
T1 sequence (P35968 20-1356): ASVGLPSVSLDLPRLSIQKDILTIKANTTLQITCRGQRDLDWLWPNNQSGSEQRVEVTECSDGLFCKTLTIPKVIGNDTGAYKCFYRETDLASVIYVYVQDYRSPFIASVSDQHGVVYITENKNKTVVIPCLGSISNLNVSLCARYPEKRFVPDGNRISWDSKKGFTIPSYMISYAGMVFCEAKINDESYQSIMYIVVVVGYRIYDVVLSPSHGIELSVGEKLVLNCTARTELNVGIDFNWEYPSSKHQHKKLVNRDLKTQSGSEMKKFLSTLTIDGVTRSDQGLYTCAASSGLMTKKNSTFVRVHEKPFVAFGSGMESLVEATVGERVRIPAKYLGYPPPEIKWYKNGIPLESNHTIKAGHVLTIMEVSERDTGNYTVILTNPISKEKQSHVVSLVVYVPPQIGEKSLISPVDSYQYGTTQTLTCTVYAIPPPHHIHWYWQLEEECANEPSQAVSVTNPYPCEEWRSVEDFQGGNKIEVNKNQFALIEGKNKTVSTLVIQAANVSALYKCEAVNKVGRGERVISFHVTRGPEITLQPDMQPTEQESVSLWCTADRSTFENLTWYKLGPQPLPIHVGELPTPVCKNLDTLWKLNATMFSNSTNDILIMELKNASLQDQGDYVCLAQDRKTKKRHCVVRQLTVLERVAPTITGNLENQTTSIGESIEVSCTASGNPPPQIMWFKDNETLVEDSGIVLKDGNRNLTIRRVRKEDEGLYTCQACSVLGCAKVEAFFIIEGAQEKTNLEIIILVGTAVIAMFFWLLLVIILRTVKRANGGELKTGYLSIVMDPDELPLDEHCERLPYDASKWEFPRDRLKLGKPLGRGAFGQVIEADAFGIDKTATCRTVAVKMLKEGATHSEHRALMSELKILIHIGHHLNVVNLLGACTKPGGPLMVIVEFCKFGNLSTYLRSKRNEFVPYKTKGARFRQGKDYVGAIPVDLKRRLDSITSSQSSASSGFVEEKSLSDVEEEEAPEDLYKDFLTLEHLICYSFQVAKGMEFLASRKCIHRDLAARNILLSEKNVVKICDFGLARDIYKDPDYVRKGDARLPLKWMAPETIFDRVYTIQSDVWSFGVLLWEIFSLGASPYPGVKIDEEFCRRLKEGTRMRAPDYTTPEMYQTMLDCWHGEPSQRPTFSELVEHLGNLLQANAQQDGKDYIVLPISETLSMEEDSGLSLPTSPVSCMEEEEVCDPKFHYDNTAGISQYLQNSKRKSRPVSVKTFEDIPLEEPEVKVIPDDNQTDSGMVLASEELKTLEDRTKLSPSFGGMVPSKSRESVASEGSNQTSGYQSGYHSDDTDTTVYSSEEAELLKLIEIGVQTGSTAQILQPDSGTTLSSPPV
T1 sequence (P09382 2-135 partner limits assumed): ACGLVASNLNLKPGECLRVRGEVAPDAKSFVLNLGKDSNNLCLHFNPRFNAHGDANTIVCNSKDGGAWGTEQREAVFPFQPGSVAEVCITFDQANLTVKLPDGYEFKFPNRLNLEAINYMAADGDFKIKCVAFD
Procedure: Array (Cell Signaling) following manufacturer's directions. For co-immunoprecipitation, 500 μg cell lysates were incubated with 2 μg of anti-VEGFR2 (55B11; Cell Signaling) or anti-NRP-1 (C-19; Santa Cruz Biotechnol) antibodies. The immunocomplexes were captured with protein G PLUS-Agarose (Santa Cruz Biotechnol) and processed for immunoblot analysis as described in Ilarregui et al. (2009) Nat Immunol 10, 981-991. Equal amounts of protein were resolved by SDS-PAGE, blotted onto nitrocellulose membranes (GE Healthcare) and probed with anti-IκB-α (C21), anti-Erk1/2 (C14), anti-phospho-Erk1/2 (E4) or anti-actin (I-19) (all from Santa Cruz Biotechnol) or anti-Akt (9272), anti-phospho-Akt (9271S), anti-VEGFR2 (55B11), anti-phospho-VEGFR2 (19A10) (all from Cell Signaling) or anti-HIF-1α (mgc3; ABR BioReagent) antibodies or a rabbit anti-Gal1 IgG (1.5 μg/ml) obtained as described in Ilarregui et al. (2009) Nat Immunol 10, 981-991.

HUVEC = HUVEC invasion (BioCoat Angiogenesis system); assay type: cell-based, human; conditions: HUVEC treated with Gal1
Procedure: HUVEC transfected or not with specific siRNA or pre-incubated with signaling pathway inhibitors were exposed to VEGF or Gal1 with or without lactose, sucrose, 8F4F8G7 mAb or control isotype (IgG1κ) or specific antibodies for VEGFR1 (AP-MAB0702; Abcam), VEGFR2 (AF357; R&D), VEGFR3 (AB89501; Abcam) or VEGF (MAB293; R&D). Cells were processed for proliferation, migration, invasion and tube formation assays. Tumor-associated blood vessels were identified by flow cytometry using Alexa Fluor 647-conjugated anti-CD34 antibody (RAM34; eBioscience).
Invasion assays were performed using the BioCoat Angiogenesis system (BD Biosciences) following manufacturer's recommendations. For assessment of in vivo angiogenesis, growth factor-reduced Matrigel (BD Biosciences) was mixed with Gal1 (0.1 or 3 μM) with or without lactose (30 mM). In another set of experiments, serum-free CM from KS cells infected or not with a retroviral vector expressing Gal1 shRNA and cultured under hypoxic or normoxic conditions, were added to unpolymerized Matrigel and injected subcutaneously into the flanks of either wild-type or Lgals1^−/− (B6) mice or nude mice using a cold syringe. Matrigel embedded with buffer alone was used as negative control and a cocktail containing VEGF (50 ng/ml), heparin (50 U/ml) and TNF (2 ng/ml) was used as positive control. […]

[1] = target: recombinant human Gal1 (rGal1) (Homo sapiens, UniProt P09382); experiment: Anti-Gal1 mAb neutralization of rGal1-induced apoptosis of activated T cells; assay type: cell-based; conditions: 10 μM rGal1 pre-incubated with 5 μM mAb; 16 h; Annexin V-FITC/PI
recombinant human Gal1 (rGal1), sequence (P09382 whole entry): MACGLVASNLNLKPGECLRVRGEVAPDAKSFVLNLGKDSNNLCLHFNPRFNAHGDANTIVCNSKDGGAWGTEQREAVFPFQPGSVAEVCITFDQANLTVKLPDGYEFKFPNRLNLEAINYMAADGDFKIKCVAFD
Procedure: Normal T cells were purified and activated with a combination of αCD3 (0.1 μg/ml) and αCD28 (0.5 μg/ml) as previously described (Juszczynski et al. (2007) Proc Natl Acad Sci USA 104:13134-9). Ten μM recombinant human Gal1 (rGal1) was pre-incubated with 5 μM anti-Gal1 mAb 8F4F8G7 or isotype control IgG2b2, (Rockland Immunochemicals Inc., Boyertown, Pa.) or medium alone at 37° C. for 30 min. Thereafter, rGal1+/− antibody was added to in vitro αCD3 and αCD28 activated T cells. After 16 h treatment, cells were harvested for apoptosis analysis using Annexin V-FITC and PI (BD Biosciences, San Jose, Calif.) flow cytometry as previously described (Juszczynski et al. (2007) Proc Natl Acad Sci USA 104:13134-9).

B16 tumors = experiment: Syngeneic B16 melanoma model; assay type: in vivo, mouse
Procedure: Wild-type KS cells or shRNA clones (5×10^6 cells) were injected subcutaneously into 6- to 8-week old nude mice. Wild-type B16 cells or shRNA clones (2×10^5 cells) were injected into 6- to 8-week old B6 or B6/Rag^−/− mice and tumor development was monitored as described in Rubinstein et al. (2004) Cancer Cell 5, 241-251. Treatments with 8F4F8G7 mAb or control isotype (2.5, 7.5 or 15 mg/kg; i.p. injections every three days) were initiated when tumors reached 100 mm^3. Mice were sacrificed when tumors reached a volume greater than 2 cm^3. At 2 weeks after tumor challenge, lymph node cells (5×10^5 cells/well) were restimulated for 72 h with 1×10^4 irradiated (4,000 rads) B16 cells and were analyzed for proliferation and cytokine production. For adoptive transfer, splenic T cells (5×10^6) from tumor-bearing mice were labeled with CFSE (Molecular Probes) and injected through the tail vein into tumor-bearing recipient mice treated with 8F4F8G7 or control mAb. In related studies, fluorescent beads (3 μm; BD Biosciences), rather than splenic T cells, were injected into tumor-bearing animals treated with 8F4F8G7 or control antibody. CFSE^+ cells or PerCP-labeled beads were analyzed after 24 h or 15 min respectively by flow cytometry in tumor parenchyma and spleen.
For immunostaining, mice were anesthetized and cardiac-perfused with PBS and 4% paraformaldehyde and tissues were embedded in OCT. To visualize the vasculature, mice were intravenously injected with FITC-conjugated Griffonia simplicifolia Lectin-1 (GLS-1B4, Vector) prior to heart perfusion and fixation. Pericyte maturation was assessed using antibodies specific for αSMA (1A4; Dako), desmin (D33; Dako), PDGFRβ (APB5; Biolegend) and Rgs5 (HPA001821; Prestige Sigma). The fraction of pericyte coverage was calculated as the ratio of αSMA area to the FITC-GLS-1B4 or CD31 stained area using a specific anti-CD31 antibody (Mec13.3; BD Biosciences). For immunoperoxidase staining, paraffin-embedded human tumor sections were incubated with anti-CD31 (JC/70A; Dako) and anti-Gal1 antibodies as described in Juszczynski et al. (2007) Proc Natl Acad Sci USA 104, 13134-13139 using the Vectastain Elite ABC kit (Vector). Studies with patient biopsies were subjected to Institutional Review Boards approval (CEMIC and IBYME). Hypoxia was detected after injection of pimonidazole hydrochloride for 30 min following immunostaining with Hypoxyprobe-1 plus kit (Natural Pharmacia International).

Molecule | association with VEGFR2 (VEGFR2) | EC invasion (HUVEC) | rGal1-induced apoptosis of αCD3/αCD28-activated T cells [1] | microvessel density of tumors (B16 tumors; 30 days post-inoculation) | frequency of CD34+ cells (B16 tumors; day 20) | decreased tumor burden (B16 tumors; immunocompetent mice, established B16 tumors, day 20) [%] | anti-tumor effect (B16 tumors; immunodeficient B6/Rag−/− mice) | coverage by pericytes (B16 tumors; vs isotype control) | dilated and tortuous vessels (B16 tumors; vs isotype control) | pericyte phenotype (B16 tumors; vs isotype control) | tumor hypoxia (pimonidazole adducts) (B16 tumors; vs isotype control) | tumor vasculature: vessel diameter and distribution (B16 tumors; vs isotype control, lectin-perfused vessels) | expression of desmin (B16 tumors; vs isotype-treated tumors) | pericyte expression of platelet-derived growth factor receptor (PDGFR)β (B16 tumors; vs isotype-treated tumors) | pericyte expression of regulator of G-protein signaling 5 (Rgs5) (B16 tumors; vs isotype-treated tumors) | pericyte expression of α-smooth muscle actin (αSMA) (B16 tumors; vs isotype-treated tumors)
rGal1: recombinant human galectin-1 | associated specifically | elicited | – | – | – | – | – | – | – | – | – | – | – | – | – | –
B1 | – | – | almost completely inhibited | only a slight decrease | No significant changes | ~86 | only a partial anti-tumor effect | greater coverage | fewer | more mature phenotype | markedly alleviated | resembled normal vascular networks | no significant variations | lower expression | lower expression | higher expression
